Tested on: patients with T2DM
Assay: Phase IIb and III clinical trials of YN-011 in combination with metformin in T2DM
Format: in vivo
Details: 3 mg YN-011 in combination with metformin, 24 weeks
Method: The Phase IIb and III clinical trials were multicenter, randomized, double-blind, placebo-controlled studies evaluating the efficacy and safety of YN-011 in patients with T2DM who had inadequate glycemic control on metformin therapy. The Phase IIb trial aimed to explore dose response and evaluate safety (divided into three groups: YN-011 1 mg+metformin, YN-011 3 mg+metformin, and placebo+metformin), to determine the Recommended Phase 3 Dose (RP3D) for the Phase III trial, which aimed at efficacy confirmation . . .
The inclusion criteria for subjects in the Phase IIb and III studies of YN-011 in combination with metformin were primarily the same as those in Implementation Example 10, except for the following point: • Diagnosed with type 2 diabetes for at least 8 weeks (WHO 2000), and met one of the following conditions: • a) Received monotherapy with metformin for >8 weeks with a dose of ≥1500 mg/day or maximum tolerated dose (<1500 mg/day but ≥1000 mg/day) (eligible subjects could directly enter the run-in period). • b) Received monotherapy with metformin for <8 weeks with a dose of ≥1500 mg/day or maximum tolerated dose (<1500 mg/day but ≥1000 mg/day) (eligible subjects needed to enter the metformin dose stabilization period). • c) Received monotherapy with metformin at a dose <1500 mg/day and had not reached the maximum tolerated dose (eligible subjects needed to enter the metformin dose titration period and dose stabilization period).
Please refer to the exclusion criteria in Implementation Example 10 for the primary exclusion criteria for subjects in the Phase IIb and III studies of YN-011 in combination with metformin.
Primary efficacy endpoints included the comparison of YN-011 in combination with metformin versus placebo in combination with metformin in terms of the change in HbA1c levels from baseline after 12 weeks (Phase IIb) or 24 weeks (Phase III) of double-blind administration in patients with T2DM who had inadequate glycemic control on metformin therapy. Please refer to Implementation Example 10 for the secondary efficacy endpoints and safety assessments.

B1: YN-011: GLP-1 fusion protein of SEQ ID NO: 7: GLP-1 (A8G, G22E, R36G), linker peptide and IgG2/Fc domain (C222S, A330S, P331S) (protein)
chain: HGEGTFTSDVSSYLEEQAAKEFIAWLVKGGGSSGAPPPSGGGGSERKSCVECPPCPAPPVAGPSVFLFPPKPKDTLMISRTPEVTCVVVDVSHEDPEVQFNWYVDGVEVHNAKTKPREEQFNSTFRVVSVLTVVHQDWLNGKEYKCKVSNKGLPSSIEKTISKTKGQPREPQVYTLPPSREEMTKNQVSLTCLVKGFYPSDIAVEWESNGQPENNYKTTPPMLDSDGSFFLYSKLTVDKSRWQQGNVFSCSVMHEALHNHYTQKSLSLSPG
incidence of hypoglycemia (<3.9 mmol/L): 1.8%
incidence of nausea: 7.0%
reduction in FPG levels: 2.42%
reduction in HbA1c levels: 1.8%

Source: US20250376498A1, “FUSION PROTEINS COMPRISING AN IMPROVED GLP-1 RECEPTOR AGONIST AND USES THEREOF” (Guangzhou Innogen Pharmaceutical Group Co., Ltd., priority 2022, published 2025)
